8 molecules from PMC4837458 can be followed below.

The subject of series [1] is dPPR-U8A2 N318S;D348N;N353S;D383N (designed (synthetic; NTD/CTD from Zea mays PPR10)), PDB:5I9D_1. In words: EMSA. The note with it: 5 mM Mg2+; apparent Kd; EMSA: 25 mM Tris-HCl pH 8.0, 5 mM MgCl2, 5 mM DTT, 0.1 mg/ml BSA, 50 ng/ml heparin, 10% glycerol, ~2 nM 32P-RNA, 20 min on ice. (Mobility shift assays separate free from complexed probe on a gel.)
The test system of series [2] is dPPR-TN (designed (synthetic; NTD/CTD from Zea mays PPR10)). As to the kind of experiment: EMSA. The note with it: 5 mM Mg2+; apparent Kd; EMSA: 25 mM Tris-HCl pH 8.0, 5 mM MgCl2, 5 mM DTT, 0.1 mg/ml BSA, 50 ng/ml heparin, 10% glycerol, ~2 nM 32P-RNA, 20 min on ice.
The subject of series [3] is T1, dPPR-U8C2 D348S;D383S (designed (synthetic; NTD/CTD from Zea mays PPR10)), PDB:5I9G_1.
T1 sequence: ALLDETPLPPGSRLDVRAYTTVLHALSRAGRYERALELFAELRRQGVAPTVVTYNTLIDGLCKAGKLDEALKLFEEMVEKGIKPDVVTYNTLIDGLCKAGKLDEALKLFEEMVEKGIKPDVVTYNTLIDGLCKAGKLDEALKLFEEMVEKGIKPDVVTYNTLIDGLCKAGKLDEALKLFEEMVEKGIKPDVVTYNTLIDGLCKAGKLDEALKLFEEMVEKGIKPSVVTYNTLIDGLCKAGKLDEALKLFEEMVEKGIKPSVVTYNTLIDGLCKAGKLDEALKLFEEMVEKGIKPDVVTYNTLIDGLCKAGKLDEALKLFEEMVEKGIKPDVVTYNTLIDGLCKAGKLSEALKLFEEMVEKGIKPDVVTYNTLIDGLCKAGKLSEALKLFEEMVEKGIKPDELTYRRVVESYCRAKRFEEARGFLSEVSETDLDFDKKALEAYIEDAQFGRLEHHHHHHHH
As to the kind of experiment: EMSA. To be noted: 5 mM Mg2+; apparent Kd; EMSA: 25 mM Tris-HCl pH 8.0, 5 mM MgCl2, 5 mM DTT, 0.1 mg/ml BSA, 50 ng/ml heparin, 10% glycerol, ~2 nM 32P-RNA, 20 min on ice.

Series [4] concerns dPPR-NN (designed (synthetic; NTD/CTD from Zea mays PPR10)). In words: EMSA. The note with it: 5 mM Mg2+; apparent Kd; EMSA: 25 mM Tris-HCl pH 8.0, 5 mM MgCl2, 5 mM DTT, 0.1 mg/ml BSA, 50 ng/ml heparin, 10% glycerol, ~2 nM 32P-RNA, 20 min on ice.
Series [5] concerns dPPR-4 (designed (synthetic; NTD/CTD from Zea mays PPR10)). As to the kind of experiment: EMSA. To be noted: 5 mM Mg2+; apparent Kd; EMSA: 25 mM Tris-HCl pH 8.0, 5 mM MgCl2, 5 mM DTT, 0.1 mg/ml BSA, 50 ng/ml heparin, 10% glycerol, ~2 nM 32P-RNA, 20 min on ice.
Series [6] deals with dPPR-SD (designed (synthetic; NTD/CTD from Zea mays PPR10)). In words: EMSA. The note with it: 5 mM Mg2+; apparent Kd; EMSA: 25 mM Tris-HCl pH 8.0, 5 mM MgCl2, 5 mM DTT, 0.1 mg/ml BSA, 50 ng/ml heparin, 10% glycerol, ~2 nM 32P-RNA, 20 min on ice.
In series [7] the test system is dPPR-U8G2 N318T;N353T (designed (synthetic; NTD/CTD from Zea mays PPR10)), PDB:5I9H_1. In words: EMSA. To be noted: 5 mM Mg2+; apparent Kd; EMSA: 25 mM Tris-HCl pH 8.0, 5 mM MgCl2, 5 mM DTT, 0.1 mg/ml BSA, 50 ng/ml heparin, 10% glycerol, ~2 nM 32P-RNA, 20 min on ice.
The target in series [8] is T2, dPPR-U8C2 (designed (synthetic; NTD/CTD from Zea …, UniProt PDB:5I9G_1 1-460, D348S;D383S).
T2 sequence: T1 sequence
In words: X-ray crystallography; 2.30 A; EMSA: 25 mM Tris-HCl pH 8.0, 5 mM MgCl2, 5 mM DTT, 0.1 mg/ml BSA, 50 ng/ml heparin, 10% glycerol, ~2 nM 32P-RNA, 20 min on ice.

Series [9] has as its target T2, dPPR-U8C2. As to the kind of experiment: EMSA; C5,C6 to U; EMSA: 25 mM Tris-HCl pH 8.0, 5 mM MgCl2, 5 mM DTT, 0.1 mg/ml BSA, 50 ng/ml heparin, 10% glycerol, ~2 nM 32P-RNA, 20 min on ice.
For series [10], the target named is T3, dPPR-U10 (designed (synthetic; NTD/CTD from Zea …, UniProt PDB:5I9F_1 1-460).
T3 chain: T1 sequence with S225D, S260D, S348D, S383D
As to the kind of experiment: EMSA; 5 mM Mg2+; apparent Kd; EMSA: 25 mM Tris-HCl pH 8.0, 5 mM MgCl2, 5 mM DTT, 0.1 mg/ml BSA, 50 ng/ml heparin, 10% glycerol, ~2 nM 32P-RNA, 20 min on ice.

Series [11] deals with T3, dPPR-U10. In words: X-ray crystallography; 2.20 A; EMSA: 25 mM Tris-HCl pH 8.0, 5 mM MgCl2, 5 mM DTT, 0.1 mg/ml BSA, 50 ng/ml heparin, 10% glycerol, ~2 nM 32P-RNA, 20 min on ice.

Substitutions are numbered along the chain they refer to.

Consider UUUUAAUUUU [U8A2 target], for which the values for the Kd in [1] and in [2] were 23.8 nM and 58.9 nM, respectively. With UUUUCCUUUU [U8C2 target], the figures for the Kd in series [3] and in [4] were 18.5 nM and 14.6 nM, respectively. As to UUCCAGAU [dPPR-4 target], the Kd in series [5] was 24.6 nM. In the case of UUUUUUUUUU [U10 target], in series [4], the Kd is 15.9 nM. As to UUUUGGUUUU [U8G2 target], the Kd is 31.1 nM in [6] and 29.8 nM in series [7]. With GGGGUUUUCCUUUUCCCC (ssRNA) [18-nt U8C2 crystal RNA], the binding result with dPPR-U8C2 [8] is “binds”.

Consider UUUUUUUUUU (ssRNA) [U10 target], for which, in the series with dPPR-U8C2 [9], the binding result was “no binding”. For the same molecule, in the series with dPPR-U10 [10], the Kd was 74.3 ± 7.9 nM. On to GGGGUUUUUUUUUUCCCC (ssRNA) [18-nt U10 crystal RNA], for which the binding result in the series with dPPR-U10 [11] is listed as “binds”.
